Substitutions are numbered along the chain they refer to.

Results on 2 molecules are retold here after patent publication US20210388105A1 (ELPISCIENCE SUZHOU BIOPHARMA, published 2021).

Test [1] addresses T1, human CD39 (full length, on cells) (human, UniProt P49961 1-510).
T1 sequence: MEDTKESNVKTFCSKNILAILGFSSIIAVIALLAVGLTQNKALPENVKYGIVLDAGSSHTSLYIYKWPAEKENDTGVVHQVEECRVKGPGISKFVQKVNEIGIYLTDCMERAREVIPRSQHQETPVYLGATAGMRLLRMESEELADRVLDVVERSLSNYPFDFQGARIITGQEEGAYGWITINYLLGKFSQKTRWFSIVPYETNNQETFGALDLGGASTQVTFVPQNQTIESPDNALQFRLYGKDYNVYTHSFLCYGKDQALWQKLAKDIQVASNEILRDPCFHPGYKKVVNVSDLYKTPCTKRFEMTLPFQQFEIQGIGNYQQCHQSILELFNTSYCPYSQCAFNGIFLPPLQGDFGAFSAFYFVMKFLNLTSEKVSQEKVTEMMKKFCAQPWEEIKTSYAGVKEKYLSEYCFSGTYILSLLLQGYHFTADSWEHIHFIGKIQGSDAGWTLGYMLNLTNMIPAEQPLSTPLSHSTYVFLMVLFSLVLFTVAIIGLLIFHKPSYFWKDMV
Description: cell-based or functional assay.

The target in test [2] is T2, KW27-20 (human CD39 mutant, C-terminal EGFP) (human, UniProt P49961 1-510).
T2 construct: expressed on HEK293F cells; not shown: C-terminal EGFP fusion (vector pCMV3-GFPSpark)
T2 chain: T1 sequence with R138A, M139A, E142K
Briefly: FACS, mutant-EGFP on HEK293F cells. An outline of the steps: (§1)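 Relative binding, the ratio of AlexaFluor647 to GFP signal, was read by flow cytometry with labelled anti-hIgG. Antibody ran as an 11-point, 3-fold series starting at 100 nM. Targets were CD39 mutant–GFP fusions expressed transiently in HEK293F cells for 3 days.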
(A flow cytometer gives signals particle by particle.)

The target in test [3] is T3, ENTPD5 protein (Homo sapiens (Human), UniProt O75356 25-428).
T3 construct: also called CD39L4; ENTPDase 5
T3 sequence: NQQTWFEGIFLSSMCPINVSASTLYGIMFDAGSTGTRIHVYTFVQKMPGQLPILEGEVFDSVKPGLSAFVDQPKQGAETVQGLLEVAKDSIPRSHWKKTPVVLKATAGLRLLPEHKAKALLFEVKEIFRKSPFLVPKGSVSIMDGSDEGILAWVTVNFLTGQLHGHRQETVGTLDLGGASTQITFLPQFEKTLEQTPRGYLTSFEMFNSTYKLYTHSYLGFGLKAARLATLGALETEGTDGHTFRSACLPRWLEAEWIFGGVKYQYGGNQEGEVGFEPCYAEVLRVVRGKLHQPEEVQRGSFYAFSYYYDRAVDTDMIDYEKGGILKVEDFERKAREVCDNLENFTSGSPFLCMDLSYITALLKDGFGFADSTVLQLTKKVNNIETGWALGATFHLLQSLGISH
Briefly: ELISA on coated ENTPD5 protein, anti-hIgG-HRP, OD450. Here is the method: Binding specificity of the purified humanized antibody hu23.H5L5 against ENTPDase family members was detected by ELISA assay. Briefly, ENTPD1 (i.e. CD39) and ENTPD 2/3/5/6 proteins were coated on 96-well ELISA plates at 4° C. overnight, next day the ELISA plates were washed and blocked using blocking buffer (1% BSA in PBS with 0.05% Tween20) 200 μL/well for 2 hours. Then hu23.H5L5 gradients were duplicated into the wells and stained with anti-hIgG-HRP. After plate washing, the plates were developed with TMB substrate and stopped by 2N HCl. The OD450 were recorded using plate reader and platted by Graphpad Prism.

Test [4] deals with T4, KW27-2 (human CD39 mutant, C-terminal EGFP) (human, UniProt P49961 1-510).
T4 construct: expressed on HEK293F cells; not shown: C-terminal EGFP fusion (vector pCMV3-GFPSpark)
T4 chain: T1 sequence with V81S, E82A, R111A, V115A
Description: FACS, mutant-EGFP on HEK293F cells. An outline of the steps:
as §1

B1: hu23.H5L5 (antibody, V domains shown)
VH: QVQLVQSGAEVKKPGASVKVSCKASGYNLKDTFLHWVRQAPGQGLEWMGRIDPANGNIKYDPKFQGRVTITADTSANTAYMELISLRSEDTAVYYCANSPYYYGSGYRIFDVWGQGTTVTVSS
VL: QIVLTQSPATLSLSPGERATLSCSAFSSVNYMHWYQQKPGQAPRLLIYTTSNLASGIPTRFSGSGSGTSYTLTISSLEPEDFAVYYCQQRSTYPFTFGQGTKLEIK
notes: humanized c23
Turning to B1, the “ATPase inhibition IC50 on SK-MEL-28 cells” value in test [1] worked out at 122 pM. The values for the binding result in test [2] and in test [3] were “no binding (tested: 100 nM highest concentration)” and “no binding (tested: about 66 nM)”, respectively.

B2: c35 (antibody, V domains shown)
VH: EVRLQQSGAELVKPGASVKLSCTASGFNIEDTYVHWMKQRPEQGLEWIGRIDPAIDNSKYDPKFQGKATITAVSSSNTAYLQLSSLTSEDTAVYYCALYDGYNVYAMDYWGQGTSVTVSS
VL: DIVMTQAAFSNPVTLGTSASISCRSSKNLLHSNGITYLYWYLQRPGQSPQLLIYRASTLASGVPNRFSGSESGTDFTLRISRVEAEDVGVYYCAQLLELPHTFGGGTKLEIK
notes: its making is not described; also called chimeric antibody c35
Take B2: the binding result in test [4] is “no binding (tested: 100 nM highest concentration)”.
